Source: PMC3185416
Where two headings read alike, the source gives them in different places.

Legend:
Smad4 MH1 [1] = biological target: T1, Smad4 MH1 (mouse, UniProt P97471 1-140); assay: EMSA
Smad4 MH1 [2] = biological target: T1, Smad4 MH1; assay: EMSA; remark: listed apart in the source
Smad4 MH1dN8 [3] = biological target: T2, Smad4 MH1dN8 (mouse, UniProt P97471 9-140); assay: crystal structure
Smad3 MH1 K33R = Smad3 MH1 K33R (UniProt Q8BUN5 1-143, K33R); assay: EMSA
Smad3 MH1 99HSHH102/HKN = Smad3 MH1 99HSHH102/HKN (UniProt Q8BUN5 1-97+=HKN+102-143, internal_change); assay: EMSA
Smad3 MH1 S100K = Smad3 MH1 S100K (UniProt Q8BUN5 1-143, S99K); assay: EMSA
Smad1 MH1 = Smad1 MH1 (UniProt P70340 1-136); assay: EMSA
Sequence of Smad1 MH1 (P70340 1-136): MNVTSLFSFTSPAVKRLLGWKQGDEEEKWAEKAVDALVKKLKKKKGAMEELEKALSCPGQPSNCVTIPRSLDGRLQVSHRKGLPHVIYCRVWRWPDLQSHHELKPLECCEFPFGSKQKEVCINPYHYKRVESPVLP

Smad4 MH1;Smad2dE3 MH1 = Smad4 MH1;Smad2dE3 MH1 (mouse;mouse?, UniProt P97471;Q62432-2 1-140;1-153, |del79-108); assay: EMSA
Smad4 MH1;Smad1 MH1 = Smad4 MH1;Smad1 MH1 (mouse;mouse?, UniProt P97471;P70340 1-140;1-136, |); assay: EMSA
Smad4 MH1;Smad3 MH1 = Smad4 MH1;Smad3 MH1 (mouse;mouse?, UniProt P97471;Q8BUN5 1-140;1-143, |); assay: EMSA
Smad4 MH1 105HKN107/HSHH = Smad4 MH1 105HKN107/HSHH (mouse, UniProt P97471 1-104+=HSHH+108-140, internal_change); assay: EMSA
Smad4 MH1 K106S = Smad4 MH1 K106S (mouse, UniProt P97471 1-140, K106S); assay: EMSA
Smad4 MH1 R38K = Smad4 MH1 R38K (mouse, UniProt P97471 1-140, R38K); assay: EMSA
Smad4 MH1 AG/SH = Smad4 MH1 AG/SH (mouse, UniProt P97471 1-140, A85S;G86H); assay: EMSA
Smad4 MH1dN10 = Smad4 MH1dN10 (mouse, UniProt P97471 11-140); assay: EMSA
Smad4 MH1dN12 = Smad4 MH1dN12 (mouse, UniProt P97471 13-140); assay: EMSA
Smad4 MH1dN8 [4] = biological target: T2, Smad4 MH1dN8; assay: EMSA
Smad4 MH1dN3 = Smad4 MH1dN3 (mouse, UniProt P97471 4-140); assay: EMSA
Smad4 MH1 [5] = biological target: T1, Smad4 MH1; assay: EMSA; remark: listed apart in the source
Smad3 MH1 = Smad3 MH1 (UniProt Q8BUN5 1-143); assay: EMSA
Smad2dE3 MH1 = Smad2dE3 MH1 (UniProt Q62432-2 1-153, del79-108); assay: EMSA

Measured: binding result

B1: JunB promoter element (dsDNA)
DNA 1: GACAGTCTGTCTGCC
DNA 2: GGCAGACAGACTGTC
binds: Smad4 MH1 [1]

B2: palindromic SBE 16-bp (crystal) (dsDNA)
DNA 1: TGCAGTCTAGACTGCA
DNA 2: TGCAGTCTAGACTGCA
binds: Smad4 MH1 [2] | Smad4 MH1dN8 [3]

B3: OPN1 promoter element (dsDNA)
DNA 1: TGGAGACTGTCTGGA
DNA 2: TCCAGACAGTCTCCA
binds: Smad4 MH1 [1]

B4: palindromic SBE (EMSA) (dsDNA)
DNA 1: TCAGTCTAGACATAC
DNA 2: GTATGTCTAGACTGA
binds: Smad3 MH1 K33R | Smad3 MH1 99HSHH102/HKN | Smad3 MH1 S100K | Smad1 MH1 | Smad4 MH1;Smad2dE3 MH1 | Smad4 MH1;Smad1 MH1 | Smad4 MH1;Smad3 MH1 | Smad4 MH1 105HKN107/HSHH | Smad4 MH1 K106S | Smad4 MH1 R38K | Smad4 MH1 AG/SH | Smad4 MH1dN10 | Smad4 MH1dN12 | Smad4 MH1dN8 [4] | Smad4 MH1dN3 | Smad4 MH1 [5] | Smad3 MH1 | Smad2dE3 MH1
